# B1: GASP-1: GPCR-associated sorting protein 1 (protein)
# chain: MTGAEIESGAQVKPEKKPGEEVVGGAEIENDVPLVVRPKVRTQAQIMPGARPKNKSKVMPGASTKVETSAVGGARPKSKAKAIPVSRFKEEAQMWAQPRFGAERLSKTERNSQTNIIASPLVSTDSVLVAKTKYLSEDRELVNTDTESFPRRKAHYQAGFQPSFRSKEETNMGSWCCPRPTSKQEASPNSDFKWVDKSVSSLFWSGDEVTAKFHPGNRVKDSNRSMHMANQEANTMSRSQTNQELYIASSSGSEDESVKTPWFWARDKTNTWSGPREDPNSRSRFRSKKEVYVESSSGSEHEDHLESWFGAGKEAKFRSKMRAGKEANNRARHRAKREACIDFMPGSIDVIKKESCFWPEENANTFSRPMIKKEARARAMTKEEAKTKARARAKQEARSEEEALIGTWFWATDESSMADEASIESSLQVEDESIIGSWFWTEEEASMGTGASSKSRPRTDGERIGDSLFGAREKTSMKTGAEATSESILAADDEQVIIGSWFWAGEEVNQEAEEETIFGSWFWVIDAASVESGVGVSCESRTRSEEEEVIGPWFWSGEQVDIEAGIGEEARPGAEEETIFGSWFWAENQTYMDCRAETSCDTMQGAEEEEPIIGSWFWTRVEACVEGDVNSKSSLEDKEEAMIPCFGAKEEVSMKHGTGVRCRFMAGAEETNNKSCFWAEKEPCMYPAGGGSWKSRPEEEEDIVNSWFWSRKYTKPEAIIGSWLWATEESNIDGTGEKAKLLTEEETIINSWFWKEDEAISEATDREESRPEAEEGDIIGSWFWAGEEDRLEPAAETREEDRLAAEKEGIVGSWFGAREETIRREAGSCSKSSPKAEEEEVIIGSWFWEEEASPEAVAGVGFESKPGTEEEEITVGSWFWPEEEASIQAGSQAVEEMESETEEETIFGSWFWDGKEVSEEAGPCCVSKPEDDEEMIVESWFWSRDKAIKETGTVATCESKPENEEGAIVGSWFEAEDEVDNRTDNGSNCGSRTLADEDEAIVGSWFWAGDEAHFESNPSPVFRAICRSTCSVEQEPDPSRRPQSWEEVTVQFKPGPWGRVGFPSISPFRFPKEAASLFCEMFGGKPRNMVLSPEGEDQESLLQPDQPSPEFPFQYDPSYRSVQEIREHLRAKESTEPESSSCNCIQCELKIGSEEFEELLLLMEKIRDPFIHEISKIAMGMRSASQFTRDFIRDSGVVSLIETLLNYPSSRVRTSFLENMIRMAPPYPNLNIIQTYICKVCEETLAYSVDSPEQLSGIRMIRHLTTTTDYHTLVANYMSGFLSLLATGNAKTRFHVLKMLLNLSENLFMTKELLSAEAVSEFIGLFNREETNDNIQIVLAIFENIGNNIKKETVFSDDDFNIEPLISAFHKVEKFAKELQGKTDNQNDPEGDQEN
# modifications: [35S]-methionine labelled
# Experiments:
# Type in all cases: binding
# [1] = test system: GST-fused TGFβ (type III transforming growth factor β receptor) C-tail; assay: GST-pull down, TGFβ C-tail; details: non-GPCR control
# From the text: (§1) cDNAs encoding the cytoplasmic C-tail of 14 GPCRs and 2 one-transmembrane receptors were cloned into the pGEX-2T prokaryotic expression vector downstream the GST sequence. The following pGEX constructs were engineered: pGEX-DOR encoding residues 314–372 of the δ-opioid receptor (referring to Swiss-Prot accession number U10504), pGEX-MOR encoding residues 334–400 of the µ-opioid receptor (L29301), pGEX-KOR encoding residues 326–380 of the κ–opioid receptor (U17298), pGEX-ORL1 encoding residues 315–370 of the opioid receptor-like 1 (X77130), pGEX-M1 encoding residues 414–460 of the muscarinic M1 acetylcholine receptor (X52068), pGEX-M2 encoding residues 436–466 of the muscarinic M2 acetylcholine receptor (M16404), pGEX- ADRB1 encoding residues 373–477 of the β1 adrenergic receptor (J03019), pGEX-ADRB2 encoding residues 322–413 of the β2 adrenergic receptor (P07550), pGEX-CALCR encoding residues 407–490 of the calcitonin receptor (L00587), pGEX-CNR2 encoding residues 295–360 of the cannabinoid type 2 receptor (P34972), pGEX-5HT7 encoding residues 380–445 of the 5-hydroxytryptamine 7 receptor (L21195), pGEX-H2 encoding residues 284–349 of the histamine 2 receptor (S57565), pGEX-TXA2 encoding residues 304–343 of the α isoform of the thromboxane A2 receptor (D38081), pGEX-FZ4 encoding residues 493–537 of the frizzled 4 receptor (AB032417), pGEX-TGFβ encoding residues 805–849 of the type III transforming growth factor b receptor (L07594), pGEX-IGF1 encoding residues 1268–1367 of the insulin growth factor I receptor (X04434). Free GST was produced by using the pGEX-4T3 expression vector without insert. The same plasmid was used to clone the cDNA encoding a central domain of GASP-1, corresponding to amino acids 380 to 1073, downstream the GST sequence. All these plasmids were transformed into the Escherichia coli BL21 strain and expression was induced using 1mM of isopropylthiogalactoside for 2 h at 37°C. Bacteria were then pelleted, resuspended in PBS supplemented with cOmplete protease inhibitors (Roche), lysed at 1.5 kbar using a basic Z cell disrupter (constant system) and finally the lysates were cleared by centrifugation (10,000g, 15 min, 4°C).
# (§2) cDNAs encoding GASP-1 and GASP-2 were cloned into the pcDNA3 eukaryotic expression vectors. cDNAs encoding GASP-3, -6, -7, and -9 were subcloned into pcDNA3.1 vectors. All the clones were controlled by DNA sequencing. The in vitro production was performed by using the TNT Quick-coupled Transcription/Translation T7 kit (Promega) in presence of [^35S]-Methionine according to the instructions from the manufacturer.
# (§3) GST-fusion proteins were immobilized on glutathione-coupled Sepharose beads (GE Healthcare) for 1 h at 4°C and incubated with [^35S]-labelled in vitro translated GASP proteins or their truncated or mutated forms in ice-cold binding buffer containing: 20 mM Tris-HCl pH 7.4, 150 mM NaCl, 1 mM EDTA, 1 mM DTT, 10% glycerol and 1% Triton X-100. The mixture was incubated for 1 h at 4°C with gentle rocking. The beads were washed five times with the same ice-cold buffer, resuspended in 30 µl SDS-PAGE sample buffer, incubated 10 min at 65°C, and pelleted for 60 s at 3000 g. The supernatants were then analyzed by SDS-PAGE, the gels were stained with Coomassie blue to visualize GST-fusion proteins, dried and analyzed using a Phosphor-imager (Personal Molecular Imager FX, Biorad) to visualize [^35S]-labelled GASPs. Quantification was performed with the Quantity One software (Biorad). GST-pull down quantification data were analyzed using GraphPad Prism 4.03 (GraphPad Software). Quantifications presented are means of at least three independent experiments.
# GST-fused ADRB2 C-tail = assay: GST-pull down, ADRB2 C-tail; details: central domain compared to full-length GASP-1
# Method: (§4) cDNAs encoding the cytoplasmic C-tail of 14 GPCRs and 2 one-transmembrane receptors were cloned into the pGEX-2T prokaryotic expression vector downstream the GST sequence. […]
# as §3, with “The mixture was incubated for 1 h at 4°C with gentle rocking. The beads were washed five times with the same ice-cold buffer, resuspended in 30 µl SDS-PAGE sample buffer, incubated 10 min at 65°C, and pelleted for 60 s at 3000 g.” left out
# GST-fused CNR2 C-tail = assay: GST-pull down, CNR2 C-tail; details: central domain compared to full-length GASP-1
# Method: as §4
# as §3, with “The mixture was incubated for 1 h at 4°C with gentle rocking. The beads were washed five times with the same ice-cold buffer, resuspended in 30 µl SDS-PAGE sample buffer, incubated 10 min at 65°C, and pelleted for 60 s at 3000 g.” left out
# GST-fused DOR C-tail = assay: GST-pull down, DOR C-tail; details: among the opioid receptors
# From the text: as §1, §2, §3
# GST-fused GPCR C-tails = assay: GST-pull down, GPCR C-tails
# From the text: as §1, §2
# as §3, with “experiments. […]” for “experiments.”
# GST-fused FZ4 C-tail = assay: GST-pull down, FZ4 C-tail; details: strong = >10% of GASP input
# Method: as §4
# as §3, with “The mixture was incubated for 1 h at 4°C with gentle rocking. The beads were washed five times with the same ice-cold buffer, resuspended in 30 µl SDS-PAGE sample buffer, incubated 10 min at 65°C, and pelleted for 60 s at 3000 g.” left out
# [2] = test system: GST-fused IGF1 (insulin growth factor I receptor) C-tail; assay: GST-pull down, IGF1 C-tail; details: non-GPCR control
# From the text: as §1, §2, §3
molecule,measurement,setting,value
B1,interaction with TGFβ C-tail,[1],no interaction was detected
same,interaction with ADRB2 C-tail,GST-fused ADRB2 C-tail,interact with GASP-1
same,interaction with CNR2 C-tail,GST-fused CNR2 C-tail,interact with GASP-1
same,interaction with DOR C-tail,GST-fused DOR C-tail,significant interactions
same,GASP input retained by GPCR C-tails,GST-fused GPCR C-tails; percent of GASP input,> 10%
same,interaction with GPCR C-tails,GST-fused GPCR C-tails; twelve GPCR C-tails,medium to strong interactions
same,interaction with FZ4 C-tail,GST-fused FZ4 C-tail,strong interaction
same,interaction with IGF1 C-tail,[2],no interaction was detected
